Test results taken from patent US20210115121A1.

What was measured:
Experiment in all cases: cell-based or functional assay
[1] = biological target: Tau from human Alzheimer's disease brain (isolated Tau PHF fibrils from Alzheimer's disease patients) (human) (UniProt P10636)
[2] = biological target: Tau from human frontotemporal dementia brain (human) (UniProt P10636)
[3] = biological target: Tau from human progressive supranuclear palsy brain (human) (UniProt P10636)
[4] = biological target: human Tau P301S from brain of P301S Tau transgenic mice (human) (UniProt P10636)
[5] = biological target: human Tau P301L from brain of P301L Tau transgenic mice (human) (UniProt P10636)
Sequence of human Tau P301L from brain of P301L Tau transgenic mice (human) (P10636 other isoform, or with tags, fused parts or gaps P301L P301L P301L P301L limits assumed): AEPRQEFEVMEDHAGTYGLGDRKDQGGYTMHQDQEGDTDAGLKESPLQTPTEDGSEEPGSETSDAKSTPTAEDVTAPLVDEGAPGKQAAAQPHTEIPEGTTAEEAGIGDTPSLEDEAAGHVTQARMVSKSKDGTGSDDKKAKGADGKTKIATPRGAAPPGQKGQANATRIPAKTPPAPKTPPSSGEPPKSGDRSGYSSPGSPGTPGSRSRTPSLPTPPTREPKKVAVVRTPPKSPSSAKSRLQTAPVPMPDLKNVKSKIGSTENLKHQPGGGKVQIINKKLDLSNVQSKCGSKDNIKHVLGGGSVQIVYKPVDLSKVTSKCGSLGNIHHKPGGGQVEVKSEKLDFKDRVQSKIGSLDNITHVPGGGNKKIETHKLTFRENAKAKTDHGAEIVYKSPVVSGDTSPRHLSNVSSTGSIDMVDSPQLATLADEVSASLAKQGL

Sequence of HJ8.5 of WO 2014/008404 (antibody) (VH): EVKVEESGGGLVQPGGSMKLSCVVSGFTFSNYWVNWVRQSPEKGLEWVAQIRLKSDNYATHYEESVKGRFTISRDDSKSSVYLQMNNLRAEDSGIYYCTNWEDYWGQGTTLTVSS
Sequence of HJ8.5 of WO 2014/008404 (antibody) (VL): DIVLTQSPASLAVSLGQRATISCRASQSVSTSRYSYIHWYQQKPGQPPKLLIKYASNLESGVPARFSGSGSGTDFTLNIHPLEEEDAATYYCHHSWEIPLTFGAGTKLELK
Sequence of IPN002 of WO2014/028777A2 (antibody) (VH): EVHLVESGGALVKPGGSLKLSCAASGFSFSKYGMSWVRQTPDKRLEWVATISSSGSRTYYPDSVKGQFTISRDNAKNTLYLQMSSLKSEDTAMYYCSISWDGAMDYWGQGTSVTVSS
Sequence of IPN002 of WO2014/028777A2 (antibody) (VL): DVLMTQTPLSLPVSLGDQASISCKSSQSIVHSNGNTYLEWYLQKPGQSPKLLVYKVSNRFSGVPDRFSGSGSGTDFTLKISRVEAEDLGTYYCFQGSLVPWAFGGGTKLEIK
Sequence of human Tau P301S from brain of P301S Tau transgenic mice (human) (P10636 other isoform, or with tags, fused parts or gaps P301S P301S P301S P301S): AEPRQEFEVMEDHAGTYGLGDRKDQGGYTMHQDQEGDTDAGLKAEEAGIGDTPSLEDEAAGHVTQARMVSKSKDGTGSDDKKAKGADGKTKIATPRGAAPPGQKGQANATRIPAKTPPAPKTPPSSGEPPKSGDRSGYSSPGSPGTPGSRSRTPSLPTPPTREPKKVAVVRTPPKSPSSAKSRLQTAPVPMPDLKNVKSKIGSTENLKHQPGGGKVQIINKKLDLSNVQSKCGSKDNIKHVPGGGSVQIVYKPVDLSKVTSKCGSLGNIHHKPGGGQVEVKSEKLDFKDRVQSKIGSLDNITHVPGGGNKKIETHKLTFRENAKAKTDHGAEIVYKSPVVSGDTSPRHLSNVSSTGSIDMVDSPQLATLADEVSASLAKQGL
Sequence of Tau from human frontotemporal dementia brain (human) (P10636 other isoform, or with tags, fused parts or gaps limits assumed): as the sequence (P10636 other isoform, or with tags, fused parts or gaps P301L P301L P301L P301L limits assumed) above, with L300P counted along it
Sequence of Tau from human Alzheimer's disease brain (isolated Tau PHF fibrils from Alzheimer's disease patients) (human) (P10636 other isoform, or with tags, fused parts or gaps limits assumed): as the sequence (P10636 other isoform, or with tags, fused parts or gaps P301L P301L P301L P301L limits assumed) above, with L300P counted along it
Sequence of Tau from human progressive supranuclear palsy brain (human) (P10636 other isoform, or with tags, fused parts or gaps limits assumed): as the sequence (P10636 other isoform, or with tags, fused parts or gaps P301L P301L P301L P301L limits assumed) above, with L300P counted along it

HJ8.5 of WO 2014/008404 (antibody)
Imax (maximal efficacy at 300 nM, cellular Tau aggregation assay) [1]: 46%
Imax (maximal efficacy at 300 nM, cellular Tau aggregation assay) [2]: 67%
IC50 (cellular Tau aggregation assay) [3]: 73 nM
Imax (maximal efficacy at 300 nM, cellular Tau aggregation assay) [3]: 79%
Imax (maximal efficacy at 300 nM, cellular Tau aggregation assay) [4]: 43%

IPN002 of WO2014/028777A2 (antibody)
Imax (maximal efficacy at 300 nM, cellular Tau aggregation assay) [1]: 19%
Imax (maximal efficacy at 300 nM, cellular Tau aggregation assay) [2]: 50%
IC50 (cellular Tau aggregation assay) [3]: 207 nM
Imax (maximal efficacy at 300 nM, cellular Tau aggregation assay) [3]: 64%
IC50 (cellular Tau aggregation assay) [5]: 122 nM
Imax (maximal efficacy at 300 nM, cellular Tau aggregation assay) [5]: 73%
Imax (maximal efficacy at 300 nM, cellular Tau aggregation assay) [4]: 22%

PT3 of WO2013/096380A2 (antibody)
IC50 (cellular Tau aggregation assay) [1]: 32 nM
Imax (maximal efficacy at 300 nM, cellular Tau aggregation assay) [1]: 69%
IC50 (cellular Tau aggregation assay) [2]: 1 nM
Imax (maximal efficacy at 300 nM, cellular Tau aggregation assay) [2]: 80%
IC50 (cellular Tau aggregation assay) [3]: 47 nM
Imax (maximal efficacy at 300 nM, cellular Tau aggregation assay) [3]: 55%
IC50 (cellular Tau aggregation assay) [5]: 26 nM
Imax (maximal efficacy at 300 nM, cellular Tau aggregation assay) [5]: 69%
IC50 (cellular Tau aggregation assay) [4]: 350 nM
Imax (maximal efficacy at 300 nM, cellular Tau aggregation assay) [4]: 56%
